Data taken from patent US8859496B2, “Pharmaceutical composition using connective-tissue growth factor” (Postech Academy-Industry Foundation, priority 2010, dated 2014).
No end group written: not given here.

Columns and labels:
[1] = target: T1, FPRL1 (Homo sapiens, UniProt P25090); test: ERK phosphorylation in FPRL1/RBL cells (immunoblot); assay type: cell-based; details: FPRL1/RBL cells
T1 construct: expressed in transfected cells; host or cells: rat basophil leukemia RBL-2H3 cells, kept under G418
T1 sequence (P25090 1-351): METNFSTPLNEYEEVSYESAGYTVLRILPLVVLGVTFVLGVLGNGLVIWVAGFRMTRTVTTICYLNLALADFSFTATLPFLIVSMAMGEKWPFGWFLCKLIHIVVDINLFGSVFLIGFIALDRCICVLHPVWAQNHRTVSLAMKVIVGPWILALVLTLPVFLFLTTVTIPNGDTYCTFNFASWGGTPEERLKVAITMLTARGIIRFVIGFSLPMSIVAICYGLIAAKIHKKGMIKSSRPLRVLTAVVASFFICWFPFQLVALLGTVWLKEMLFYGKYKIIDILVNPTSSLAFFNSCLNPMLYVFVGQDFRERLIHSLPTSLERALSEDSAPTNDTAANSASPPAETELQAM
Protocol: Vector/RBL cells, FPR/RBL cells, FPRL1/RBL cells, and HUVECs were cultured to confluence, and serum-starved. The stimulated cells (1×10^5 cells) were washed with PBS twice, dissolved in 1 ml of sample buffer (50 mM Tris-HCl, 100 mM NaCl, 0.1% SDS, 1% Nonidet P-40, 50 mM NaF, 1 mM Na3VO4, 1 μg/ml aprotinin, 1 μg/ml pepstatin, and 1 μg/ml leupeptin), heated at 95° C. for 30 seconds, separated with SDS-PAGE, and then, transferred to a nitrocellulose film. Immunoblot was conducted using anti-phospho-ERK (extracellular signal regulated kinase)1/2 (Thr^202/Tyr^204)(Cell Signaling Technology, Beverly, Mass., USA), anti-ERK1/2 (Cell Signaling Technology, Beverly, Mass., USA), anti-CTGF (Abcam, Cambridge, Mass., USA), anti-Actin (Sigma, St. Louis, Mo., USA), or anti-Flag (Sigma, St. Louis, Mo., USA) antibody, and then, the film was visualized with a chemiluminescence substrate (Amersham Pharmacia).
To confirm this, the inventors obtained conditioned medium (CM) in HUVEC treated with VEGF-A, and FPRL1-overexpressing cells FPRL1/RBL were treated therewith in the concentration of 10 ng/ml or 50 ng/ml for 8 hours. At this time, as positive control, FPRL1 agonistic peptide WKYMVm (Trp-Lys-Tyr-Met-Val-D-Met, SEQ ID NO. 1) was treated with 10 nM.
After the treatment, immunoblot was conducted on cell lysate that was transferred to a nitrocellulose film with anti-phospho ERK (extracellular signal regulated kinase)1/2 and anti-ERK1/2 antibody (Cell Signaling Technology, Beverly, Mass., USA), and then, the film was visualized with a chemiluminescence substrate (Amersham Pharmacia), and the results are shown in FIG. 1.
Meanwhile, the above described vector/RBL, FPR/RBL, or FPRL1/RBL cells were respectively treated with the above conditioned medium or VEGF-A at the concentration of 10 ng/ml for 8 hours, and positive control was treated with 10 nM of agonistic peptide WKYMVm (SEQ ID NO. 1).
As described in the <Experiment method 5>, FPRL1/RBL cells were treated with 40 ug of the HPLC fraction of the conditioned medium for 5 minutes, and the result confirming whether ERK phosphorylation occurred as described in the <Experiment result 1> was shown in FIG. 3.
To confirm whether the purified proteins induce ERK phosphorylation in FPRL1/RBL cells, immunoblot was conducted as described in the <Experiment result 1>, and the results are shown in FIG. 9.
ERK phosphorylation induction of CTGF linker polypeptide was compared to recombinant human CTGF (rhCTGF). Specifically, FPRL1/RBL cells were treated with CTGF linker polypeptide and rhCTGF for 5 minutes at various concentrations, ERK phosphorylation was measured, and the results are shown in FIG. 11. […]

[2] = target: T2, FPRL1 in HUVECs (Homo sapiens, UniProt P25090); test: Flow cytometry binding of biotinylated linker polypeptide in HUVECs
T2 construct: endogenous in cells; host or cells: HUVECs
T2 sequence (P25090 1-351): T1 sequence (P25090 1-351)
Protocol: To evaluate the degree of binding of linker polypeptide corresponding to the link region of human CTGF, linker polypeptide was labeled using a EZ-Link Micro Sulfo-NHS-LC-Biotinylation kit (Pierce Chemical Co., Rockford, Ill., USA) according to the manufacturer's instruction. The linker polypeptide was cultured at room temperature for 1 hour in PBS with 9 mM sulfo-NHS-LC-biotin (Pierce Chemical Co., Rockford, Ill., USA). During biotinylation, vector/RBL cells, FPR/RBL cells, FPRL1/RBL cells, or HUVECs were treated with trypsin, and collected, and then, treated with rabbit serum at room temperature for 30 minutes. After culturing the biotinylated linker polypeptide in the ice for 30 minutes, the cells were shortly washed with ice-cold PBS, cultured with antihuman fluoroscein-5-isothiocyanate (FITC)-conjugated streptavidin (Pierce Chemical Co.), and then, washed with ice-cold PBS, and fixed with 1% formaldehyde solution. And then, they were analyzed using FACS Caliber system (BD Biosciences, San Jose, Calif.) with CellQuest and WinMDI 2.9 software according to previously known method (He, R., Sang, H. & Ye, R. D. Serum amyloid A induces IL-8 secretion through a G protein-coupled receptor, FPRL1/LXA4R. Blood 101, 1572-1581, 2003).
It was examined whether the CTGF linker polypeptide binds to FPRL1 in HUVECs as described in the <Experiment method 7>, and the results are shown in FIG. 13. […]

binding of linker polypeptide in HUVECs (flow cytometry shift) ([2]; 10 nM, 30 minutes, compared to vehicle) | effect of antagonist on ERK phosphorylation induced by CTGF linker polypeptide or rhCTGF ([1]; 10 nM CTGF linker polypeptide or rhCTGF, WRW4 10 uM) | effect of antagonist on linker polypeptide binding in HUVECs ([2]; WRW4 10 uM with 10 nM CTGF linker polypeptide) | Substance | ERK phosphorylation compared to rhCTGF ([1]; 10 nM) | ERK phosphorylation compared to rhCTGF ([1]; various concentrations, 5 minutes)
average value shifts right |  |  | EWVCDEPKDQTVVGPALAAYRLEDTFGPDPTMIRANCLV (EWVCDEPKDQTVVGPALAAYRLEDTFGPDPTMIRANCLV-NH2; cysteine pairing not given here) [CTGF linker polypeptide] | induces ERK phosphorylation to a similar level to rhCTGF | induces ERK phosphorylation to a similar level to rhCTGF
 | ERK phosphorylation is inhibited | the shift is not observed | WRWWWW (FPRL1 antagonist) [WRW4] |  | 
